Source: US8114832

Target: endostatin (UniProt P39060)
Test: SPR (Biacore), Fn F4-5 immobilized on CM5 chip, concentration series of endostatin

Sequence of endostatin (P39060 1572-1754): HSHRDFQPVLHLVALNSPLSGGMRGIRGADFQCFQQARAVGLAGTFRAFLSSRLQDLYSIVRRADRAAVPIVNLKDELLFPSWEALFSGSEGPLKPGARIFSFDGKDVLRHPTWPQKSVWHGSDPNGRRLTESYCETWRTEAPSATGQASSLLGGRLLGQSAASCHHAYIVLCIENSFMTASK

Fn F4-5-His6 (from UniProt P02751 182-276)
concentration of ligand that results in half maximum binding: 800 nM
